Reference: patent US20200306373A1 (Hoffmann-La Roche, published 2020)

T1: human ICOS (human, UniProt Q9Y6W8 21-199)
T1 construct: also called hICOS; CD278
T1 sequence: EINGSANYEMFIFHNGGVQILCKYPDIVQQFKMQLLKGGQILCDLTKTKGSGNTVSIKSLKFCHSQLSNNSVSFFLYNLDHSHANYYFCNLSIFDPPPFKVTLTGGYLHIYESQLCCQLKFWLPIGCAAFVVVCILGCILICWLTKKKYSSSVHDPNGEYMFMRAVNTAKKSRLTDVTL

T2: human CEA (human, UniProt P06731 35-685)
T2 construct: Endogenous CEA on MKN45 human gastric adenocarcinoma cells; also called Carcinoembryonic antigen; CEACAM5
T2 sequence: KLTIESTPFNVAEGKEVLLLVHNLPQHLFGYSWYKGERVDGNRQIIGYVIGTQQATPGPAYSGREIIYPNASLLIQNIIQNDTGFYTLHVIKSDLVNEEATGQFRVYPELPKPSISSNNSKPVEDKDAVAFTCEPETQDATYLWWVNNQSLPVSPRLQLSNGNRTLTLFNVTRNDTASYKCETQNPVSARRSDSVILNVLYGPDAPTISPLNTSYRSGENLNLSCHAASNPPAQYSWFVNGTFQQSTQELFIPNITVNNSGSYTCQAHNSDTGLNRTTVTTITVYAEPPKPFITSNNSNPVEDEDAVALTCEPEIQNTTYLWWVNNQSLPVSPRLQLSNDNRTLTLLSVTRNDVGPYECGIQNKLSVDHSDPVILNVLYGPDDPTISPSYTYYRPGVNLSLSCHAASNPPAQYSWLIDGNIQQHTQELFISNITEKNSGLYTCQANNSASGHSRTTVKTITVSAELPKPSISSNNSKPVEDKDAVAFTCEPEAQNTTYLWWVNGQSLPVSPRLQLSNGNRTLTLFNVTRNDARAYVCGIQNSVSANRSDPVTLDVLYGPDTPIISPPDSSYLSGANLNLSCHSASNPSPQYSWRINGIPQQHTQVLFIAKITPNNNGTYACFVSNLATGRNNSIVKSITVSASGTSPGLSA


Experiments:
human ICOS [1] = biological target: T1, human ICOS; experiment: flow cytometry, activated human PBMCs, ICOS on CD4+ T cells
[2] = biological target: T3, human fibroblast activating protein (huFAP) (human, UniProt Q12884 1-760); experiment: flow cytometry on NIH/3T3-huFAP clone 19 cells (human FAP), PE anti-human secondary, median fluorescence intensity
T3 construct: Expressed on NIH/3T3-huFAP clone 19 cells; also called human FAP; hFAP
Method: (§1) This cell line was generated by the transfection of the mouse embryonic fibroblast NIH/3T3 cell line (ATCC CRL-1658) with the expression vector pETR4921 to express huFAP under […] Puromycin selection.
(§2) The staining was fixed for 20 min at 4° C. in the dark, using 75 μl of 1% PFA in FACS buffer per well. Fluorescence was analyzed by FACS using a FACS Fortessa (Software FACS Diva). Binding curves were obtained using GraphPadPrism6 and are shown in FIGS. 6A-6C and 7A-7B, respectively.

human ICOS [3] = biological target: T1, human ICOS; experiment: flow cytometry, activated human PBMCs, ICOS on CD8+ T cells
human ICOS [4] = biological target: T1, human ICOS; experiment: cell-based or functional assay
[5] = biological target: T3, human fibroblast activating protein …; experiment: flow cytometry on NIH/3T3-huFAP clone 19 cells
Method: as §1, §2

human CEA = biological target: T2, human CEA; experiment: flow cytometry on MKN45 cells (human CEA), Alexa Fluor 647 anti-human Fc secondary, frequency of A647+ cells
Method: Briefly, human PBMCs, isolated from either Buffy Coats or fresh blood from healthy human donors (as described in Example 5.1) were incubated in a humidified incubator at 37° C. for 48 hours in RPMI1640 medium including […] PHA-L (Roche, #11249738001) and 100 units/ml recombinant human IL-2 (“Proleukin”, Novartis) at a cell density of 1 million cells per ml.
At the day of the assay, pre-activated PBMCs cells were harvested, washed with PBS, and 0.2 million cells in FACS buffer (PBS with 0.1% BSA) were plated per well of a 96-round bottom-well plate. Likewise, adherent MKN45 tumor cells were detached using trypsin (Gibco, 25300-054), washed and 0.15 million cells were transferred into the 96-round bottom well-plate. […] Cells were washed with FACS buffer and the staining was fixed for 20 min at 4° C. in the dark, using 75 µl of 1% PFA in FACS buffer per well. Cells were washed again two times with FACS Buffer and re-suspended in FACS Buffer for analysis.
Fluorescence was analyzed by FACS using a FACS Fortessa (Software FACS Diva). Binding curves and EC₅₀ values were obtained using GraphPadPrism6.

[6] = biological target: T4, murine ICOS Fc(kih) Avi tag (murine, Avi tag, captured on a streptavidin chip); experiment: SPR, Biacore T200, 25 C, murine ICOS Fc(kih) on streptavidin chip, antibody injected 1000-31.25 nM, 1:1 Langmuir
T4 construct: also called recombinant murine ICOS Fc(kih)
T4 sequence (chain, as listed by the source limits assumed, chain 1 of 2): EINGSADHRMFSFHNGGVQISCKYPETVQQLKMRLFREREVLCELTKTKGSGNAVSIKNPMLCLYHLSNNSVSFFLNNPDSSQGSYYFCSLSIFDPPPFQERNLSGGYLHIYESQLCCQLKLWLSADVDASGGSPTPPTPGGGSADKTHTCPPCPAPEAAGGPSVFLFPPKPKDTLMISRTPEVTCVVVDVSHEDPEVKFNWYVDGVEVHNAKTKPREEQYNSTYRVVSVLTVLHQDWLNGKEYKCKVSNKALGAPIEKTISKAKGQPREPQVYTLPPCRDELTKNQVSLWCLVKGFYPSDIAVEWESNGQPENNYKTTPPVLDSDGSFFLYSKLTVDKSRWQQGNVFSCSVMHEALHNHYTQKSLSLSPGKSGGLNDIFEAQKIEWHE
T4 sequence (chain, as listed by the source limits assumed, chain 2 of 2): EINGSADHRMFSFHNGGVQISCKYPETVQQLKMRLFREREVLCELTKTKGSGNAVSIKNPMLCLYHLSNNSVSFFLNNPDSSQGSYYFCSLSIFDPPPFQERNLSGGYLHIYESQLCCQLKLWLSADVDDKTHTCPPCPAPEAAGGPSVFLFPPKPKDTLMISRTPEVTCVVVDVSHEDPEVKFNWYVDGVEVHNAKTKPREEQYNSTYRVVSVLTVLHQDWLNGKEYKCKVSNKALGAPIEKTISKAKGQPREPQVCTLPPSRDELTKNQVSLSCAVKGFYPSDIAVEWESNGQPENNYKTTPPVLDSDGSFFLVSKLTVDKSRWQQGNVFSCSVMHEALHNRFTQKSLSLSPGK
Method: Surface plasmon resonance experiments were performed on a Biacore T200 at 25° C. with HBS-EP as running buffer (0.01 M HEPES pH 7.4, 0.15 M NaCl, 0.005% (v/v) Surfactant P20 (GE Healthcare)).
The immobilization level was approximately 600 RU. […] The dissociation phase was monitored for 500 s and triggered by switching from the sample solution to HBS-EP. The chip surface was regenerated after every cycle using one injection of 10 mM Glycine pH 3.0 for 60 s.
The affinity constants were derived from the kinetic rate constants by fitting to a 1:1 Langmuir binding using the BIAeval software (GE Healthcare).

Row | Binder | EC50 (human ICOS [1]) | binding result [2] | EC50 (human ICOS [3]) | Fold increase vs TCB only at 200 pM CEA-ICOS (% CD69^+CD4^+), Donor 1 (D1) (human ICOS [4]) | Fold increase vs TCB only at 200 pM CEA-ICOS (% CD69^+CD4^+), Donor 2 (D2) (human ICOS [4]) | Fold increase vs TCB only at 1000 pM CEA-ICOS (% CD69^+CD4^+), Donor 1 (D1) (human ICOS [4]) | Fold increase vs TCB only at 1000 pM CEA-ICOS (% CD69^+CD4^+), Donor 2 (D2) (human ICOS [4]) | EC50 [5] | EC50 (read off the curve) (human CEA) | Kd [6] | koff [6] | kon [6]
1 | DP47-ICOS_1+1, huIgG1 P329G LALA, monovalent ICOS (JMAb136), monovalent DP47 (bispecific antibody, Untargeted control, human IgG1 P329G LALA; also called ICOS-DP47 control molecule; untargeted DP47-ICOS) heavy 1: not shown light 1: DIQMTQSPSSVSASVGDRVTITCRASQGISRLLAWYQQKPGKAPKLLIYVASSLQSGVPSRFSGSGSGTDFTLTISSLQPEDFATYYCQQANSFPWTFGQGTKVEIKRTVAAPSVFIFPPSDRKLKSGTASVVCLLNNFYPREAKVQWKVDNALQSGNSQESVTEQDSKDSTYSLSSTLTLSKADYEKHKVYACEVTHQGLSSPVTKSFNRGEC heavy 2: not shown light 2: not shown | 19.9 nM | no binding (tested: about 120000 pM) | 25.7 nM | – | – | – | – | – | – | – | – | –
2 | FAP-ICOS_2+1, huIgG1 P329G LALA, bivalent ICOS (JMAb136), monovalent FAP (4B9) (bispecific antibody, Human IgG1 P329G LALA, knob-into-hole; also called ICOS-FAP 2+1; ICOS(JMab136)-FAP(4B9) 2 + 1) heavy 1: not shown heavy 2: not shown light: DIQMTQSPSSVSASVGDRVTITCRASQGISRLLAWYQQKPGKAPKLLIYVASSLQSGVPSRFSGSGSGTDFTLTISSLQPEDFATYYCQQANSFPWTFGQGTKVEIKRTVAAPSVFIFPPSDRKLKSGTASVVCLLNNFYPREAKVQWKVDNALQSGNSQESVTEQDSKDSTYSLSSTLTLSKADYEKHKVYACEVTHQGLSSPVTKSFNRGEC | 10.7 nM | – | 14.4 nM | 2.66 fold | 1.38 fold | 2.66 fold | 1.96 fold | 5.19 nM | – | – | – | –
3 | ICOS(JMab136)-CEA(MEDI-565) 1+1, CEA-ICOS_1+1, huIgG1 P329G LALA, monovalent ICOS (JMAb136), monovalent CEA (MEDI-565) (bispecific antibody, Human IgG1 P329G LALA, knob-into-hole; also called CEA(MEDI565)-ICOS(JMAb136)_1 + 1) heavy 1: not shown light 1: DIQMTQSPSSVSASVGDRVTITCRASQGISRLLAWYQQKPGKAPKLLIYVASSLQSGVPSRFSGSGSGTDFTLTISSLQPEDFATYYCQQANSFPWTFGQGTKVEIKRTVAAPSVFIFPPSDRKLKSGTASVVCLLNNFYPREAKVQWKVDNALQSGNSQESVTEQDSKDSTYSLSSTLTLSKADYEKHKVYACEVTHQGLSSPVTKSFNRGEC heavy 2: not shown light 2: EVQLVESGGGLVQPGRSLRLSCAASGFTVSSYWMHWVRQAPGKGLEWVGFIRNKANGGTTEYAASVKGRFTISRDDSKNTLYLQMNSLRAEDTAVYYCARDRGLRFYFDYWGQGTTVTVSSASVAAPSVFIFPPSDEQLKSGTASVVCLLNNFYPREAKVQWKVDNALQSGNSQESVTEQDSKDSTYSLSSTLTLSKADYEKHKVYACEVTHQGLSSPVTKSFNRGEC | – | – | – | 4.99 fold | 2.91 fold | 5.95 fold | 2.47 fold | – | ~50 pM | – | – | –
4 | anti-ICOS 16E09 IgG1 P329G LALA antibody (antibody, V domains shown, also called phage-derived ICOS-specific antibody 16E09) VH: EVQLVQSGAEVKKPGESLKISCKGSGYSFTSYWIGWVRQMPGKGLEWMGIIYPGDSDTRYSPSFQGQVTISADKSISTAYLQWSSLKASDTAMYYCARSSGPYGLYLDYWGQGTLVTVSS VL: not shown | – | – | – | – | – | – | – | – | – | 180 nM | 0.0192 s⁻¹ | 144000 M⁻¹ s⁻¹
